The source of these data is PMC6739602, “Intestinal Gel-Forming Mucins Polymerize by Disulfide-Mediated Dimerization of D3 Domains” (Journal of Molecular Biology, 2019).

By stoichiometry N is commonly meant the number of molecules, sites or subunits per partner or assembly.

Data set [1] concerns the molecule itself. In words: SEC-MALS; Superose 6 10/300 column, 0.5 ml/min, 10 mM Tris (pH 7.4), 20 mM NaCl, 0.02% sodium azide. For orientation: Size exclusion chromatography separates by hydrodynamic size, large species first.
Data set [2] concerns the molecule itself. As to the kind of experiment: SEC-MALS; Superdex 200 Increase 10/300 column, 0.5 ml/min, 25 mM Hepes (pH 7.4), 250 mM NaCl, 0.02% sodium azide.

B1: D1D2D3, mucin 2 recombinant protein spanning residues 21 to 1259 (domain or fragment, human, UniProt Q02817 21-1259, looked up)
chain: SELQTEGRTRNHGHNVCSTWGNFHYKTFDGDVFRFPGLCDYNFASDCRGSYKEFAVHLKRGPGQAEAPAGVESILLTIKDDTIYLTRHLAVLNGAVVSTPHYSPGLLIEKSDAYTKVYSRAGLTLMWNREDALMLELDTKFRNHTCGLCGDYNGLQSYSEFLSDGVLFSPLEFGNMQKINQPDVVCEDPEEEVAPASCSEHRAECERLLTAEAFADCQDLVPLEPYLRACQQDRCRCPGGDTCVCSTVAEFSRQCSHAGGRPGNWRTATLCPKTCPGNLVYLESGSPCMDTCSHLEVSSLCEEHRMDGCFCPEGTVYDDIGDSGCVPVSQCHCRLHGHLYTPGQEITNDCEQCVCNAGRWVCKDLPCPGTCALEGGSHITTFDGKTYTFHGDCYYVLAKGDHNDSYALLGELAPCGSTDKQTCLKTVVLLADKKKNVVVFKSDGSVLLNELQVNLPHVTASFSVFRPSSYHIMVSMAIGVRLQVQLAPVMQLFVTLDQASQGQVQGLCGNFNGLEGDDFKTASGLVEATGAGFANTWKAQSSCHDKLDWLDDPCSLNIESANYAEHWCSLLKKTETPFGRCHSAVDPAEYYKRCKYDTCNCQNNEDCLCAALSSYARACTAKGVMLWGWREHVCNKDVGSCPNSQVFLYNLTTCQQTCRSLSEADSHCLEGFAPVDGCGCPDHTFLDEKGRCVPLAKCSCYHRGLYLEAGDVVVRQEERCVCRDGRLHCRQIRLIGQSCTAPKIHMDCSNLTALATSKPRALSCQTLAAGYYHTECVSGCVCPDGLMDDGRGGCVVEKECPCVHNNDLYSSGAKIKVDCNTCTCKRGRWVCTQAVCHGTCSIYGSGHYITFDGKYYDFDGHCSYVAVQDYCGQNSSLGSFSIITENVPCGTTGVTCSKAIKIFMGRTELKLEDKHRVVIQRDEGHHVAYTTREVGQYLVVESSTGIIVIWDKRTTVFIKLAPSYKGTVCGLCGNFDHRSNNDFTTRDHMVVSSELDFGNSWKEAPTCPDVSTNPEPCSLNPHRRSWAEKQCSILKSSVFSICHSKVDPKPFYEACVHDSCSCDTGGDCECFCSAVASYAQECTKEGACVFWRTPDLCPIFCDYYNPPHECEWHYEPCGNRSFETCRTINGIHSNISVSYLEGCYPRCPKDRPIYEEDLKKCVTADKCGCYVEDTHYPPGASVPTEETCKSCVCTNSSQVVCRPEEGKILNQTQDGAFCYWEICGPNGTVEKHFNICSIT
notes: mucin 2 (MUC2), human, Uniprot Q02817, residues 21 to 1259; Probably made with the same QSOX1 signal peptide as MUC2D3, which would leave Ala-Pro at the N-terminus; also called MUC2 D1D2D3; source: HEK293F, produced and purified essentially as for MUC2D3 (no kifunensine; preparative gel filtration in 10 mM Hepes pH 7.5, 20 mM NaCl); not shown: His6, C-terminal, kept
Turning to B1, the “stoichiometry N” value in data set [1] was found to be 2.

B2: D1D2D3CysD1, mucin 2 recombinant protein spanning residues 21 to 1397 (domain or fragment, human, UniProt Q02817 21-1397, looked up)
chain: SELQTEGRTRNHGHNVCSTWGNFHYKTFDGDVFRFPGLCDYNFASDCRGSYKEFAVHLKRGPGQAEAPAGVESILLTIKDDTIYLTRHLAVLNGAVVSTPHYSPGLLIEKSDAYTKVYSRAGLTLMWNREDALMLELDTKFRNHTCGLCGDYNGLQSYSEFLSDGVLFSPLEFGNMQKINQPDVVCEDPEEEVAPASCSEHRAECERLLTAEAFADCQDLVPLEPYLRACQQDRCRCPGGDTCVCSTVAEFSRQCSHAGGRPGNWRTATLCPKTCPGNLVYLESGSPCMDTCSHLEVSSLCEEHRMDGCFCPEGTVYDDIGDSGCVPVSQCHCRLHGHLYTPGQEITNDCEQCVCNAGRWVCKDLPCPGTCALEGGSHITTFDGKTYTFHGDCYYVLAKGDHNDSYALLGELAPCGSTDKQTCLKTVVLLADKKKNVVVFKSDGSVLLNELQVNLPHVTASFSVFRPSSYHIMVSMAIGVRLQVQLAPVMQLFVTLDQASQGQVQGLCGNFNGLEGDDFKTASGLVEATGAGFANTWKAQSSCHDKLDWLDDPCSLNIESANYAEHWCSLLKKTETPFGRCHSAVDPAEYYKRCKYDTCNCQNNEDCLCAALSSYARACTAKGVMLWGWREHVCNKDVGSCPNSQVFLYNLTTCQQTCRSLSEADSHCLEGFAPVDGCGCPDHTFLDEKGRCVPLAKCSCYHRGLYLEAGDVVVRQEERCVCRDGRLHCRQIRLIGQSCTAPKIHMDCSNLTALATSKPRALSCQTLAAGYYHTECVSGCVCPDGLMDDGRGGCVVEKECPCVHNNDLYSSGAKIKVDCNTCTCKRGRWVCTQAVCHGTCSIYGSGHYITFDGKYYDFDGHCSYVAVQDYCGQNSSLGSFSIITENVPCGTTGVTCSKAIKIFMGRTELKLEDKHRVVIQRDEGHHVAYTTREVGQYLVVESSTGIIVIWDKRTTVFIKLAPSYKGTVCGLCGNFDHRSNNDFTTRDHMVVSSELDFGNSWKEAPTCPDVSTNPEPCSLNPHRRSWAEKQCSILKSSVFSICHSKVDPKPFYEACVHDSCSCDTGGDCECFCSAVASYAQECTKEGACVFWRTPDLCPIFCDYYNPPHECEWHYEPCGNRSFETCRTINGIHSNISVSYLEGCYPRCPKDRPIYEEDLKKCVTADKCGCYVEDTHYPPGASVPTEETCKSCVCTNSSQVVCRPEEGKILNQTQDGAFCYWEICGPNGTVEKHFNICSITTRPSTLTTFTTITLPTTPTTFTTTTTTTTPTSSTVLSTTPKLCCLWSDWINEDHPSSGSDDGDRETFDGVCGAPEDIECRSVKDPHLSLEQLGQKVQCDVSVGFICKNEDQFGNGPFGLCYDYKIRVNCCWPMDKCIT
notes: mucin 2 (MUC2), human, Uniprot Q02817, residues 21 to 1397 (includes the CysD1 domain following a short threonine-rich segment); Probably made with the same QSOX1 signal peptide as MUC2D3, which would leave Ala-Pro at the N-terminus; also called the largest fragment; source: HEK293F, produced and purified essentially as for MUC2D3 (no kifunensine; preparative gel filtration in 10 mM Hepes pH 7.5, …)
Consider B2, for which, in data set [1], the “stoichiometry N” value stood at 2.

B3: MUC2D3, mucin 2 recombinant protein spanning residues 858 to 1259 (domain or fragment)
chain: APGTCSIYGSGHYITFDGKYYDFDGHCSYVAVQDYCGQNSSLGSFSIITENVPCGTTGVTCSKAIKIFMGRTELKLEDKHRVVIQRDEGHHVAYTTREVGQYLVVESSTGIIVIWDKRTTVFIKLAPSYKGTVCGLCGNFDHRSNNDFTTRDHMVVSSELDFGNSWKEAPTCPDVSTNPEPCSLNPHRRSWAEKQCSILKSSVFSICHSKVDPKPFYEACVHDSCSCDTGGDCECFCSAVASYAQECTKEGACVFWRTPDLCPIFCDYYNPPHECEWHYEPCGNRSFETCRTINGIHSNISVSYLEGCYPRCPKDRPIYEEDLKKCVTADKCGCYVEDTHYPPGASVPTEETCKSCVCTNSSQVVCRPEEGKILNQTQDGAFCYWEICGPNGTVEKHFNICSIT
modifications: N-linked glycans (six potential N-linked glycosylation sites); for the crystals endoH-treated to leave only a monosaccharide at glycosylated asparagines; intersubunit disulfides C1088-C1088 and C1130-C1130
notes: cleavage is predicted to occur between the two adjacent alanines; mucin 2 (MUC2), human, Uniprot Q02817, residues 858 to 1259 (VWD3, C8-3, TIL-3 and E-3 domains); Expressed in pcDNA3.1 downstream of the QSOX1 signal peptide; kifunensine/EndoH-treated protein gave the crystals of the solved structure; Disulfide-linked homodimer; also called mucin 2 multimerization module; MUC2 region spanning the …
Turning to B3, the “stoichiometry N” value in data set [2] came to 2.
